Laboratory results: the supplement of paper PMC9170038

How the values were obtained:
MS2 coat protein [1] = assay: apparent KD of MS2 coat protein, switch ON state; designed switch direction (-1 OFF switch, 1 ON switch): -1; higher = weaker reporter binding; conditions: FMN input: 0 or 200 uM; Eterna round: R93 (includes R88 designs)
Procedure, shortened: (§1)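 Apparent KD was obtained for each design as the median of normalised binding-curve fits over its clusters. RNA switches transcribed on-chip from Illumina sequencing clusters were titrated with SNAP-549-labelled MS2 coat protein (twofold steps, 0.7 or 1.5 nM to 3 µM) in 100 mM Tris-HCl pH 7.5, 80 mM KCl, 4 mM MgCl2, without or with constant ligand.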

MS2 coat protein [2] = assay: apparent KD of MS2 coat protein, switch OFF state (with FMN for OFF switches, without FMN for ON switches); designed switch direction (-1 OFF switch, 1 ON switch): -1; higher = weaker reporter binding; conditions: FMN input: 0 or 200 uM; Eterna round: R93 (includes R88 designs)
Procedure, shortened: as §1

Row | Sequence | apparent KD of MS2 coat protein (MS2 coat protein [1]) [nM] | apparent KD of MS2 coat protein (MS2 coat protein [2]) [nM]
1 | AAAAAACAUGAGGAUCACCCAUGUGAGGAUAUCGCUAGUCAGUCAUCAGAGUGAGUGAUGAGAAGGCACAUAAA [Brourd 613 Mod 6 - Jieux - Exclusion 1] | 26.3 | 31.9
2 | AACUGACAUGAGGAUCACCCAUGUCAGGAUAUGACUUGACGAAAAAAAACACGUCAUGUCAGAAGGGACAUGGA [Design 89: Sub-opt Z] | 21.8 | 37.3
3 | AUAAAGUAAGGAUAUGCGAAUAAAUAAGUAGACGAAUGAAAGCAGAAGGUACAUGAGGAUCACCCAUGUAAGAA [Ex 4 Tesla 2] | 30.3 | 19
4 | AGCUAGUCAGGAUAUACGGACAUGUCAGGAGACGUGAAGGGACAUGAGGAUCACCCAUGUAGAAGGGACUAGCG [74%, Web mod - With 4 more G's] | 35.5 | 106
5 | AAGAAGGGAGGAUAUACAAAAUAAAAGAAAAGAAAGAAAGAACAUGAGGAUCACCCAUGUAGAAGGCUCAAGAA [Mersekhemre Ined] | 37.2 | 24.9
6 | AAAAAACAUGAGGAUCACCCAUGUGAGGAUAUCGGUAGUGAGGCUAUAGUGUCAAUAGUGAGAAGGCACAUAAA [Brourd 613 Mod 12 - Jieux - Exclusion 1] | 31.1 | 29.2
7 | AAGAGUACAGGAUAUACAUGAAAAGAGUCGAAAGACUCAAAACAUGAGGAUCACCCAUGUAGAAGGGUACUCAA [Hyphema Seclusion Mod 62% 2] | 137 | 98.9
8 | AAAAAGGUAGGAUAUACAUGAGGAUCACCCAUGUAAAUAAAUGGAGAAAAAAACAAUUGUAGAAGGGCCAAAAA [Ex3 Malc#8] | 39.9 | 43.1
9 | AAAAAGUCAGGAUAUGCAGAAAAAAAAACGAAAAAAAAACUGCAGAAGGGACAUGAGGAUCACCCAUGUUAAAA [Ex 4 May 14] | 30.8 | 29.8
10 | ACCACACAUGAGGAUCACCCAUGUGAGGAUAUCUAGAAAACCUCAUGUAAAAAAAUCUAGAGAAGGCAUAUGAA [Design 93: Pseudoknot C] | 38.3 | 28.4
11 | AAGAGUAGAGGAUAUACGGGAAAAGAGUCGAAAGACUCAAAACAUGAGGAUCACCCAUGUAGAAGGCUACUCAA [Hyphema Seclusion Mod 62% 6] | 87.7 | 102
12 | CCACAGGUAGGAUAUGCUGGGUGGGAUAAAUAAUUCCUGUGACAUGAGGAUCACCCAUGUAGAAGGACCAAAAG [Rixela] | 22.9 | 40.1
13 | AAAUGACAUGAGGAUCACCCAUGUCAGGAUAUGACUUGAAAAAAAAAAAAAAAACAUGUCAGAAGGGACAUGGG [Design 50: Sub-opt FB] | 15.7 | 9.45
14 | AAAAAAGGAGGAUAUACGUACAUGUCGAAAGACGUGAAGGGACAUGAGGAUCACCCAUGUAGAAGGCCUAAAAA [Mat - Exclusion 2 - JL mod - D86] | 34.8 | 107
15 | AAAAAGGGAGGAUAUACAUGAGGAUCACCCAUGUAAAAAAAAAAAGGAGGGAGGGAAGGUAGAAGGCCCAAAAA [Excls3-IIi] | 17.7 | 24.6
16 | GAAAAGUCAGGAUAUACAGAAAAAAAAACGAAAAAAAAUCUGUAGAAGGGACAUGAGGAUCACCCAUGUAAAAG [Mat - Exclusion 4 - Mayanna - D123] | 52.6 | 38.7
17 | AAAAAGGGAGGAUAUACAUGAGGAUCACCCAUGUAAAAAAAAACAAAAAAAAAAAAAAGUAGAAGGCCCAAAAA [here you go] | 52.3 | 37.5

Row | Sequence | apparent KD of MS2 coat protein (MS2 coat protein [1]) [nM] | apparent KD of MS2 coat protein (MS2 coat protein [2]) [nM]
18 | AAGAAAGGAGGAUAUACAAAAUAAAAGAAAAGAAAGAAAGAACAUGAGGAUCACCCAUGUAGAAGGCCUAAGAA [Merhotepre Sobekhotep V] | 23.5 | 14.4
19 | UAAAACAGAGGAUAUACAUGAGGAUCACCCAUGUAAAAAUGUAGAAGGCUGAAAUAAAUAAGAAGGAAAUAAAA [Meechl Ex3 R2 m1] | 24.8 | 25.6
20 | AACAGUACAGGAUAUACAUGAGGAUCACCCAUGUGAGAAUAAAGUGGCGUACCACAAAGUAGAAGGGUACUGGA [Mat - Exclusion 3 - JL mod - D20] | 26.7 | 148
21 | AAAAAACAUGAGGAUCACCCAUGUGAGGAUAUCGGAAAAGGAAAAAAAAAAAAGAAGACGAGAAGGCACAAAGA | 26.6 | 28.6
22 | AAAUUGUCAGGAUAUCUUAGAAUAGUCAAAGACUAGAGCUAAGAGAAGGGACAUGAGGAUCACCCAUGUAAAAC [May 91] | 61.8 | 56.6
23 | AAGGGACAUGAGGAUCACCCAUGUCAGGAUAUGCUAUGGAAAAAUAAAAUAAAACAUAGCAGAAGGGAUAAAAA [Mat - Exclusion 1 - Eli mod - D32] | 23 | 51.1
24 | AAGAAGUGAGGAUAUGUCUGUGCGAAAAAAAAAAAGUGCAGACAGAAGGCACAUGAGGAUCACCCAUGUGGAAA [Florian 65% 5] | 27.8 | 29.1
25 | AGUCCAGAAGGAUAUACAUAGGUGAUAAAAAAAAAAAAACUACAUGAGGAUCACCCAUGUAGAAGGUCUGGACA [Brourd - Exclusion 2 - Sub 3] | 37.8 | 24.5
26 | AAAAAACAUGAGGAUCACCCAUGUGAGGAUAUCUGAAAAAAAAAAAAAAAAAAGAAAAAGAGAAGGCGCAAAGA [Ex 1 #2] | 38 | 35.1
27 | AAGAAAGCAGGAUAUACAUGAGGAUCACCCAUGUAAAAGAAAGAAAGGGAAAAGAAAAGUAGAAGGGCUAAGAA [Usermaatre-setepenre Pami] | 23.6 | 26.1
28 | AAAAACCUAGGAUAUACAUGAGGAUCACCCAUGUAAAGAAACAAAAAGGGAAAAACAAGUAGAAGGAGGAAGAA [JR_Exc003_Sub1202] | 16.3 | 18.2
29 | AGGAAACAUGAGGAUCACCCAUGUGAGGAUAUAGAAAAGAAAAGAAAAGAAAGAAGAACUAGAAGGCACAAGAA [Neheb] | 31.2 | 28.8
30 | AAGCUGCUAGGAUAUACAGCAGGGAUUCGAAAACCCACGAAACAUGAGGAUCACCCAUGUAGAAGGAGUAGGGA [Attixe] | 22.9 | 15.2
31 | AAAUACUAAGGAUAUACAUGAGGAUCACCCAUGUACAAACCCGUGGAACGGAUCCUUAGUAGAAGGUGGACGAA [Onquerar] | 13.6 | 13.9
32 | AAGUUACAUGAGGAUCACCCAUGUGAGGAUAUGUGUAUCCCUAAAAAAGUGUGGGACCACAGAAGGUACUUGGA [Mod 2 of Atanri by ViennaUCT, Round 1] | 42.9 | 44.5
33 | AACUGACAUGAGGAUCACCCAUGUCAGGAUAUGACUUGAUAGAAAAUAAAAUAUCAUGUCAGAAGGGACAUGAA [Design 61: Sub-opt KB] | 14.3 | 12.4
34 | AAGGGACAUGAGGAUCACCCAUGUCAGGAUAUGCUAUGGAAAUAAAAAAUAAAACAUAGCAGAAGGGACACCAA [Mat - Exclusion 1 - Eli mod - D49] | 24 | 39.2
